Measured values published in patent US8450280B2, “Activation of peptide prodrugs by hK2” (GenbSpera, Inc., priority 1999, dated 2013).

Target: T1, hK2 (Homo sapiens, UniProt P20151)
T1 construct: made in house
Experiment: Inhibition of hK2 by protease inhibitors (substrate H-Pro-Phe-Arg-AMC)
Format: biochemical
Details: for Activity (%) of hK2, percentage of inhibitor-free control: 10 minutes of incubation, 8.3 nM hK2, 90 μM substrate
Procedure: Activity of hK2 (1.6 pmol) was monitored using the substrate H-Pro-Phe-Arg-AMC (SEQ ID NO: 55) (90 μM). Inhibitors, at commonly used concentrations, and hK2 (8.3 nM) were mixed and proteolysis of 90 μM H-Pro-Phe-Arg-AMC (SEQ ID NO: 55) was followed up to 20 minutes, starting directly or 10 minutes after mixing the enzyme with various inhibitors. Inhibition was evaluated by comparison with […] controls.
The proteolytic activity is expressed in percentage of inhibitor-free control after 10 minutes of incubation.
Therefore, PPACK can be used to obtain fast irreversible inhibition of hK2.

T1 sequence (P20151 25-261): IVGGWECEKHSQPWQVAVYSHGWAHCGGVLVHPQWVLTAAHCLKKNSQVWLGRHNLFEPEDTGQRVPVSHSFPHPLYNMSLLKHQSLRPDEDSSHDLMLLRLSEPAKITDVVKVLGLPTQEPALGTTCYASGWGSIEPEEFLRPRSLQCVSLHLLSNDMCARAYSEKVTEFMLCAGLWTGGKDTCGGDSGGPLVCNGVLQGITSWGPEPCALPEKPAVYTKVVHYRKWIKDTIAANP

B1: SLPI: protease inhibitor present in the prostate (protein)
chain: SGKSFKAGVCPPKKSAQCLRYKKPECQSDWQCPGKKRCCPDTCGIKCLDPVDTPNPTRRKPGKCPVTYGQCLMLNPPNFCEMDGQCKRDLKCCMGMCGKSCVSPVKA
inhibition of hK2 (in words) (8 nM hK2, 90 μM substrate): inhibited hK2 weakly
Activity (%) of hK2, percentage of inhibitor-free control (inhibitor 0.08 μM): 92%
Activity (%) of hK2, percentage of inhibitor-free control (inhibitor 4 μM): 35%

B2: PCl: protein C inhibitor (PCI), plasma protease inhibitor (serpin) (protein)
chain: HRHHPREMKKRVEDLHVGATVAPSSRRDFTFDLYRALASAAPSQSIFFSPVSISMSLAMLSLGAGSSTKMQILEGLGLNLQKSSEKELHRGFQQLLQELNQPRDGFQLSLGNALFTDLVVDLQDTFVSAMKTLYLADTFPTNFRDSAGAMKQINDYVAKQTKGKIVDLLKNLDSNAVVIMVNYIFFKAKWETSFNHKGTQEQDFYVTSETVVRVPMMSREDQYHYLLDRNLSCRVVGVPYQGNATALFILPSEGKMQQVENGLSEKTLRKWLKMFKKRQLELYLPKFSIEGSYQLEKVLPSLGISNVFTSHADLSGISNHSNIQVSEMVHKAVVEVDESGTRAAAATGTIFTFRSARLNSQRLVFNRPFLMFIVDNNILFLGKVNRP
Activity (%) of hK2, percentage of inhibitor-free control (inhibitor 0.016 μM): 50%
Activity (%) of hK2, percentage of inhibitor-free control (inhibitor 0.08 μM): 0%

B3: ACT: α1-antichymotrypsin purified from human blood plasma (protein)
chain: HPNSPLDEENLTQENQDRGTHVDLGLASANVDFAFSLYKQLVLKAPDKNVIFSPLSISTALAFLSLGAHNTTLTEILKGLKFNLTETSEAEIHQSFQHLLRTLNQSSDELQLSMGNAMFVKEQLSLLDRFTEDAKRLYGSEAFATDFQDSAAAKKLINDYVKNGTRGKITDLIKDLDSQTMMVLVNYIFFKAKWEMPFDPQDTHQSRFYLSKKKWVMVPMMSLHHLTIPYFRDEELSCTVVELKYTGNASALFILPDQDKMEEVEAMLLPETLKRWRDSLEFREIGELYLPKFSISRDYNLNDILLQLGIEEAFTSKADLSGITGARNLAVSQVVHKAVLDVFEEGTEASAATAVKITLLSALVETRTIVRFNRPFLMIIVPTDTQNIFFMSKVTNPKQA
inhibition of the hK2 activity (in words) (100-fold molar excess, 20 minute measurement time): no inhibition
Activity (%) of hK2, percentage of inhibitor-free control (inhibitor 0.8 μM): 100%
